For three substances, median NOD (numbers of disruption), saphenous vein bleeding model in hemophilia B mice 7 days after injection results are on record in US20150307863A1.

The target of this assay is type IV collagen. Description: cell-based or functional assay.
On to “wild type Factor IX (human FIX) (from UniProt P00740 47-461) (enzyme)”, for which the median NOD (numbers of disruption), saphenous vein bleeding model in hemophilia B mice 7 days after injection was determined as 14 disruptions. To “Factor IX K5R variant (from UniProt P00740 47-461) (enzyme)” belongs 19 disruptions; to “Factor IX K5A variant (from UniProt P00740 47-461) (enzyme)”, 8 disruptions.
